Measurements taken from the nanobody polyreactivity screen of Harvey et al. (2022).

assay: yeast display, Sf9 membrane polyspecificity reagent, FACS + sequencing; frameworks hold sequencing errors
Method in brief: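 In a synthetic yeast display library (Saccharomyces cerevisiae BJ5465), nanobody expression was induced with galactose for 36–48 hours. FACS gates were set low and high (top ~1%) using anti-HA fluorescence for expression and streptavidin fluorescence for binding of the Sf9 membrane reagent. Each polyreactivity label is drawn from the gate of origin.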

Row | Sequence | polyreactivity (PSR sort gate)
1 | QVQLVESGGGLVQAGGSLRLSCAASGLSFGIYAIGWYRKAPGKERELVAAISRSGGSTYYADSVKGRFTISRDNAKNTVYLQMNSLKPEDTAVYYCAAPYYVGYDYWGQGTQVTVSS | high polyreactivity
2 | QVQLVESGGGLVQAGGSLRLSCAASGLSFRRYAMGWYRQAPGKEREFVATISRRGGSTRYADSVKGRFTISRDNAKNTVYLQMKSLKPEDTAVYYCNKVEYASIAKGYDYWGQGTQVTVSS | high polyreactivity
3 | QVQLVESGGGLVQAGGSLRLSCAASGLSSLRMLWDGIDRRLGKKGSWLPLITSGGDSTNYADSVKGRFTISRDNAKNTVYLQMNSLKPEDTAVYYCAADLDYPYGYWGQGTQVTVSS | low polyreactivity
4 | QVQLVESGGGLVQAGGSLRLSCAASGLTCRYNAMGWYRQAPGKERELVAGIRISGGNTRYADAVKGRCTISRDNAKKSVYLQMNSLKPEDTAVYYCSALTGFYNLRPYGYWGQGTQVTVSS | high polyreactivity
5 | QVQLVESGGGLVQAGGSLRLSCAASGLTFAAYAMGWYRQAPGKEREMVAAISRRGGSTYYADSVKGRFTISRDNAKNTVYLQMNRLKPEDTAVYYCARGGSRLTQGWLVTPYDYDYWGQGTQVNVSS | high polyreactivity
6 | QVQLVESGGGLVQAGGSLRLSCAASGLTFAFYAMGWYRQAPGKERELVAAISGSGGSTNYADSVKGRFTISRDNAKNTVYLQMNSLKPEDTAVYYCAATYTYSWAYGYWGQGTQVTVSS | high polyreactivity
7 | QVQLVESGGGLVQAGGSLRLSCAASGLTFAKYAMGWYRQEPGKEREFVAAITYSGGTTYYADSVKGRFTISRDNAKNTVYLQMNSLKPEDTAVYYCNTRSTLGYYWGQGTQVTVSS | high polyreactivity
8 | QVQLVESGGGLVQAGGSLRLSCAASGLTFARYAMGWSRQAPGKERELVAAISSSGGTKYADSVKGRFTISRDNAKNTVYLQMNSLIPEDTAVYYCNADAVVERSSVWYYWSIYEYWGQGTQVTVSS | low polyreactivity
9 | QVQLVESGGGLVQAGGSLRLSCAASGLTFAVYAMGWYRQAPGKERELVASITRSGGSTYYADSVKGRFTISRDNAKNTVYLQMNSLKPEDTAVYYCAAQTIYSGRYYYYSRYDYWGQGTQVTVSS | high polyreactivity
10 | QVQLVESGGGLVQAGGSLRLSCAASGLTFDHYTMGWYRQATGLERELVAAITKNGGSTYYADSVKGRFTISRDNAKNTVYLQMISLKPEDTAVYYCNVGPRRVDRSRAASSDYDYWGQGTQVTVSS | high polyreactivity
11 | QVQLVESGGGLVQAGGSLRLSCAASGLTFDVYAMGWYRQAPGKERELVAAISSIGGSTYYADSVKGRFTISRDNAKNTVYLQMNSLKPEDTAVYYCNADYFGGGDYWGQGTQVTVSS | low polyreactivity
12 | QVQLVESGGGLVQAGGSLRLSCAASGLTFERYAMGSYIQAPGKERELVAAISGSGGSTYYADSVKGRFTISRDNAKNTVYLQMNSLKPEDTAVYYCAAYPTVWYDYWGQGTQVTVSS | high polyreactivity
13 | QVQLVESGGGLVQAGGSLRLSCAASGLTFERYAMGWYRQAPGKERELVADITWSGGRTYYADSVKGRFTISRDNAKNTVYLQMNSLKPEDTAVYYCAADVYPGYVGSQEYDYWGQGTQVTVSS | low polyreactivity
14 | QVQLVESGGGLVQAGGSLRLSCAASGLTFEYNAMGWYRQAPGKERELVAAITSGVNTYYADSVKGRFTISRDNAKNTVYLQMNSLKPEDTAVYYCAKYRWNWRYVSRGDSWGQGTQVTVSS | high polyreactivity
15 | QVQLVESGGGLVQAGGSLRLSCAASGLTFEYYTMGWYIQAPGKERELVAAITSSGGSTYYADSVKGRFTISRDNAKNTVYLQMNSLKPVDTAVYYCAAYQIYQYDGTYDYWGQGTQVTVSS | low polyreactivity
16 | QVQLVESGGGLVQAGGSLRLSCAASGLTFEYYTMGWYRQAPGKERELVAAITSSGGSTYYADSVKGRFTISRDNAKNTVYLQMNSLKPEDTAVYYCAADYYTWYGILYDYWGQGTQVTVSS | low polyreactivity
17 | QVQLVESGGGLVQAGGSLRLSCAASGLTFFGNAMGWYRQAPGKERELVATISSGGGTSYADSVKGRFTISRDNAKNTVYLQMNSLKPEDTAVYFCAAEIVEEFDYWGQGTQVTVSS | low polyreactivity
18 | QVQLVESGGGLVQAGGSLRLSCAASGLTFFKYTMGWYIQAPGKERELVAAINGGGSTNYADSVKGRFTISRDNAKNTVYLQMNSLKPEDTAVYYCAAGLPYGYDYWGQGTQVTVSS | low polyreactivity
19 | QVQLVESGGGLVQAGGSLRLSCAASGLTFGDNAMGWYRQAPGKERELVAAITTSGPSTYYADSVKGRFTISRDNAKNTVYLQMNSLKPEDTAVYYCAADGLFYWVQYGYWGQGTQVTVSS | low polyreactivity
20 | QVQLVESGGGLVQAGGSLRLSCAASGLTFGDYAMGWYRQAPGKEWELVAVITSSGSTYYADSVKGRFTISRDNAKNTVYLQMNSLKPEDTAVYYCATSAPAYRWRERYYYWGQGTQVTVSS | high polyreactivity
21 | QVQLVESGGGLVQAGGSLRLSCAASGLTFGDYTMGWYRQAPGKERELVAAITWSGASTYYADSVKGRFTISRDNAKNTVYLQMNSLKPEDTAVYYCADERTPSYRAYDYWGQGTKVTVSS | low polyreactivity
22 | QVQLVESGGGLVQAGGSLRLSCAASGLTFGGNAMGWYRQAPGKERELVAAISSGGSTNYADSVKGRFTISRDNAKNTVYLQMNSLKPEDTAVYYCAARDRPGNYFTVYGYWGQGTQVTVSS | low polyreactivity

Row | Sequence | polyreactivity (PSR sort gate)
23 | QVQLVESGGGLVQAGGSLRLSCAASGLTFGGNAMGWYRQAPGKERELVAAISWSDDTTDYADSVKGRFTISRDNAKNTVYLQMNSLKPEDTAVYYCADRLPFEHVDYWGQGTQVTVSS | low polyreactivity
24 | QVQLVESGGGLVQAGGSLRLSCAASGLTFGGNAMGWYRQAPGKERELVAAISWSDDTTDYADSVKGRFTISRDNAKNTVYVQMNSLKPEDTAVYYCAARLPFEHVDYWGQGTQVTVTS | low polyreactivity
25 | QVQLVESGGGLVQAGGSLRLSCAASGLTFGRNAMGWYRQAPGKERELVAAISRSGGRTSYADSVKGRFTISRDYAKNTVYLQMNSLKPEDTSVYFCAALSDVYTHDYWGQGTQVTVSS | high polyreactivity
26 | QVQLVESGGGLVQAGGSLRLSCAASGLTFGTYAMGWYRQAPGKERELVAAIRSGGSTNYADSVKGRFTISRDTAKNTVYLQMNILKPEDNAVYYCAKRYYWDRYYYWGQGTPVTVSS | high polyreactivity
27 | QVQLVESGGGLVQAGGSLRLSCAASGLTFGWYAMGWYRQAPGKERELVASITRRSGSTYYADSVKGRFTISRDNAKNTVYLQMNSLKPEDTAVYYCNAVPGYVYYYQYWGQGTQVTVSS | high polyreactivity
28 | QVQLVESGGGLVQAGGSLRLSCAASGLTFGYYAMGWYRQAPGKERELVAAISVSGSTYYADSVKGRFTISRDNAKNTVYLQMNSLKPEDTAVYYCNRAIGYRKELDYWGQGTQVTVSS | high polyreactivity
29 | QVQLVESGGGLVQAGGSLRLSCAASGLTFGYYAMGWYRQAPGKERELVAVISGGGGTHYADSVKGRFTISRDNAKNTVYLQMNSLKPEDTAVYYCAARYRAQQIARYYYWGQGTQVTVSS | high polyreactivity
30 | QVQLVESGGGLVQAGGSLRLSCAASGLTFGYYTMGWYRQAPGKERELVAAITYSGGSTYYADSVKGRFTISRDNAKNSVYLQMYSLKPEDTAVYYCAADGPVYTTYEYWGQGTQVTVSS | low polyreactivity
31 | QVQLVESGGGLVQAGGSLRLSCAASGLTFGYYTMGWYRQAPGKERELVAAITYSGGSTYYADSVKGRFTISRDNAKNTVYLQMNSLKPEDTAVYYCAAEGPVYTTYEYWGQGTQVTVSS | low polyreactivity
32 | QVQLVESGGGLVQAGGSLRLSCAASGLTFHRYAMGWYRPAPGKERELVAGISWSGASTYYADSVKGRFTISRDNAKNTVYLQMNSLKPEDTAVYYCAARRYYKYDWGQGTQVTVSS | high polyreactivity
33 | QVQLVESGGGLVQAGGSLRLSCAASGLTFIAYAMGWYRQAPGKERELVAAITWIGDSTYYADSVKGRFTISRDNAKNTVYLQMNSLKPEDTAVYYCATDWYGQYNGIYDYWGQGTQVTVSS | low polyreactivity
34 | QVQLVESGGGLVQAGGSLRLSCAASGLTFIFNTMGWYRQAAGKERVLVAAISTSGGSTYYADSVKGRFTISRDNANNTVYLQMNSVKQEDTAFYYCAKEFKYWGYPYEYWGQGTLVTVSS | low polyreactivity
35 | QVQLVESGGGLVQAGGSLRLSCAASGLTFIFYAMGWYRPAPGKERELVAAISVSGGSTYYADSVKGRFTISRDNAKNTVYLQMNSLKPEDTAVYYCAADREHFATYGPHMDYWGQGTQVTVSS | low polyreactivity
36 | QVQLVESGGGLVQAGGSLRLSCAASGLTFIHYSMGWYRQAPGKEREFVAAISTNSGSTYYADSVKGRFTISRDNAKNTVYLQMNSLKPEDTAVYYCAARGLRWRIDGEYWGQGTQVTVSS | high polyreactivity
37 | QVQLVESGGGLVQAGGSLRLSCAASGLTFIRYAMGWYRQAPGKQRELVAAISTSGGRTYYADSVKGRFTISRDNAKNNVYLQMNILTPEDTAVYYCNAYWRQGYYPEYYYWGQGTQVTVSS | high polyreactivity
38 | QVQLVESGGGLVQAGGSLRLSCAASGLTFIYYAMGWYRQAPGKERELVAAISTSGASTYYADSVKGRFTISRDNAKNTVYLQMNSLKPEDTAVYYCNAEYFGEYRDYGYWGQGTQVTVSS | low polyreactivity
39 | QVQLVESGGGLVQAGGSLRLSCAASGLTFIYYAMGWYRQAPGKERELVARINNGDNTYYADSVKGRFTISRDNAKNTVYLQMNRLNPEDTAVYYCAAARYSRLSRTRPGKYGYWGQGTQVTVSS | low polyreactivity
40 | QVQLVESGGGLVQAGGSLRLSCAASGLTFIYYAMGWYRQARGKERELVAAISRSGGSTYYADSVKGRFTISRDNAKNTVYLQMNSLKPEDTAVYYCAADGTKYSGRVTGDYWGQGTQVTVSS | high polyreactivity
41 | QVQLVESGGGLVQAGGSLRLSCAASGLTFKDNVMGWYRQAPGKERELVAAISSSGGSTYYADSVKGRFTLSRDNAKNTVYLQMNSLKPEDTAVYYCAAPTFSRYYYWGQGTQVTVSS | high polyreactivity
42 | QVQLVESGGGLVQAGGSLRLSCAASGLTFKFNAMGWYRQAPGKERELVAAITYSGGSTYYADSVKGRFTISRDNAKNTVYLQMNSLKPDDTAVYYCAAEGWWGYYRYNYWGQGTQVTVSS | high polyreactivity
43 | QVQLVESGGGLVQAGGSLRLSCAASGLTFKQYALGWYRQAPGKERELVAAITVSGGDTYYADSVKGRFTISRDNAKNSVYLQMNSLKPVDTAVYYCAADHFFWGYDYWGQGTQVTVSS | high polyreactivity
